Results as given in PMC3128695, “A Lower-Order Oligomer Form of Phage Shock Protein A (PspA) Stably Associates with the Hexameric AAA^+ Transcription Activator Protein PspF for Negative Regulation” (Journal of Molecular Biology, 2009).

B1: His-PspA(1–110) (HD1–HD2) (domain or fragment)
chain: not shown
B2: His-PspA(68–110) (HD2) (domain or fragment)
chain: not shown
notes: PspA, E. coli, residues 68-110 (HD2); Cloned NdeI-BamHI into pET28b+, which should give an N-terminal His tag as for the other fragments (surmised); a start codon was added by the forward primer; source: pET28b+-based plasmid pGJ52
B3: His-PspA(68–186) (HD2–HD3) (domain or fragment)
chain: not shown
B4: His-PspA(68–222) (HD2–HD3–HD4) (domain or fragment)
chain: not shown

Target: the molecule itself
Assay: SEC; single proteins alone: 50-μl samples of 30 μM PspAFL or PspA fragments (20 μM PspF1–275), Superose 6, 4 °C, 20 mM Tris–HCl pH 8.0, 50 mM NaCl, 15 mM MgCl2; apparent oligomeric forms from calibration with globular proteins

| Protein | stoichiometry N [subunits] |
| --- | --- |
| B1 | 2 |
| B2 | 2 |
| B3 | 6 |
| B4 | 6 |
